{"source": "patent US6770446B1", "about": "“Cell systems having specific interaction of peptide binding pairs” (Wyeth, priority 1994, dated 2004)", "key": {"[1]": {"target": "RGS-Z fused to the Gal4 activation domain (RGS-Z-pACT2) (yeast; human) (UniProt O76081)", "assay": "cell-based or functional assay"}, "KDR": {"target": "KDR (Homo sapiens, UniProt P35968)"}, "[2]": {"target": "T1, KChIP1 fused to the Gal4 activation domain (hKChIP1-pACT2) (yeast; human, UniProt Q9NZI2-2 1-216, limits assumed)", "T1 sequence (looked up)": "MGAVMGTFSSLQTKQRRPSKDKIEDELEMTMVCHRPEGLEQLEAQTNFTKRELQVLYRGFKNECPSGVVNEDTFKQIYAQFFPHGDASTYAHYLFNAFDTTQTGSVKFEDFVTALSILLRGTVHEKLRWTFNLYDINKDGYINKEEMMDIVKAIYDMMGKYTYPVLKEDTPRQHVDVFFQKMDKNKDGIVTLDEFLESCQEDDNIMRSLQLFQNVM", "assay": "cell-based or functional assay"}, "[3]": {"target": "T2, extracellular domain of rat growth hormone receptor (GHR, amino acids 1-247) fused to the Gal4 DNA binding … (yeast; rat, UniProt P04386 1-147; P16310 19-265)", "T2 construct": "Expressed inside yeast (two-hybrid); also called GHR fusion; GHR-GAL4 fusion; not shown: polylinker residues of pAS2; not described", "assay": "yeast two-hybrid, HIS3 growth on selective medium (strain CY722)"}, "[4]": {"target": "T3, GH and GHR fusion proteins (Rattus norvegicus, UniProt P16310)", "T3 construct": "encoding amino acids 1-247 of the rat GHR (Baumbach et al., 1989); expressed in transfected cells; host or cells: Saccharomyces cerevisiae CY770 (URA- derivative of Y190)", "T3 sequence (P16310 19-265)": "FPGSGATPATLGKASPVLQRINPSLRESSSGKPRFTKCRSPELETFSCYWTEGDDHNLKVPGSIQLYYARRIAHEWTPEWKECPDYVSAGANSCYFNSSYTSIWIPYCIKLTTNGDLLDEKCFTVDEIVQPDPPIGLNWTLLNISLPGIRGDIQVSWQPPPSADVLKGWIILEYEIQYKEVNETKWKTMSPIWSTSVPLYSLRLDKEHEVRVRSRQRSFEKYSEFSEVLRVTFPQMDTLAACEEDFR", "assay": "Yeast two-hybrid competition assay: free peptide co-expressed with GH and GHR fusion proteins, growth on selective medium", "format": "cell-based", "design": "key to Growth: +: scored for cell growth, indicated by a plus", "settings": "for Effect of co-expressed free peptide on GH-GHR-dependent cell growth on selective medium: free peptide expressed from pCUP in a strain with GH and GHR fusions"}, "[5]": {"target": "T2, extracellular domain of rat growth …", "assay": "in vivo competition in yeast two-hybrid, free GH from pCUP (strain CY781)"}, "[6]": {"target": "T4, PRL and PRLR fusion proteins (Sus scrofa, UniProt Q6JTA8, M232L/S231T)", "T4 construct": "flank the extracellular domain of the PRLR, encoding amino acids 1-229; expressed in transfected cells; host or cells: Saccharomyces cerevisiae (URA- derivative of Y190; strains CY786/CY787)", "T4 sequence (Q6JTA8 with tags, fused parts or gaps)": "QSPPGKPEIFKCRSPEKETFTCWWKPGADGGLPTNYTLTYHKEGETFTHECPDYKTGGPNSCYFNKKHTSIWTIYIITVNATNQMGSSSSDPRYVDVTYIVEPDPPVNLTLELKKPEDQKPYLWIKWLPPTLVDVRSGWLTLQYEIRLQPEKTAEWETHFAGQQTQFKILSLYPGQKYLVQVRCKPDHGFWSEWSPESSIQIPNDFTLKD", "assay": "Yeast two-hybrid competition assay: free peptide co-expressed with PRL and PRLR fusion proteins, growth on selective medium", "format": "cell-based, porcine", "settings": "free peptide expressed from pCUP in a strain with PRL and PRLR fusions", "description": "To expand and validate this technology, a similar system was developed using the peptide hormone prolactin (PRL) and its receptor. Prolactin is structurally related to GH and the prolactin receptor (PRLR) is also a member of the cytokine receptor superfamily. […] Mature porcine PRL is generated as a fusion to the GAL4 activation domain. Oligonucleotides are designed to pig PRL (obtained from GenBank; […] No. X14068), and used to generate the mature pig PRL protein hormone from a pig pituitary lambda gt11 library, using standard PCR methods. A 31 base 5' oligonucleotide includes an EcoRI site ([NT] ID NO: 7) and corresponds to sequences encoding amino acids 1-7. A 30 base 3' oligonucleotide contains an EcoRI site ([NT] ID NO: 8) and corresponds to a region of cDNA 3' to the endogenous termination codon. A 600 bp fragment is obtained, ligated into vector pCR 11, and confirmed by restriction enzyme digest and sequence analysis. The PRL cDNA is cloned into pACT-II via the EcoRI site. The extracellular domain of the porcine PRL receptor (PRLR) is generated as a fusion to GAL4 DNA binding domain. Oligonucleotides are designed based on sequence of the mouse PRLR (Davis and Linzer, 1989) A 31 base 5' oligonucleotide contains a […] ID NO: 9) while the 31 base 3' oligonucleotide contains a termination codon followed by a […] ID NO: 10). […]"}}, "note": "Values joined by “and” are separate entries in the source; they are usually repeats but may differ in a detail not shown here. Equal values may be shown once."}
{"molecule": "constitutively active G-alphaZ Q205L fused to the Gal4 DNA binding domain (Q205L/GaZ-pGBKT7) (from UniProt P04386 1-147; P19086 1-355)", "values": [{"measurement": "firefly luciferase activity, ybn66L in a 75:25 mix with ybn77L (OD 0.25 and 0.15) (luminescence units)", "setting": "[1]", "result": 950000}, {"measurement": "increase in Renilla luciferase activity, strain ybn70L", "setting": "[1]", "result": 40, "unit": "fold"}, {"measurement": "induction of luciferase activity, interaction strain (ybn66L) against control strains", "setting": "[1]", "result": "5 fold and 10 fold"}]}
{"molecule": "VEGF", "values": [{"measurement": "Growth on selective media of strain expressing two KDR receptor fusion proteins plus free ligand", "setting": "KDR", "result": "substantial growth on selective media"}]}
{"molecule": "N-terminus of the potassium channel 4.3 (hKv4.3N) fused to the Gal4 DNA binding domain (hKv4.3N-pGBT9) (other, yeast;human, UniProt P04386 1-147, looked up) MKLLSSIEQACDICRLKKLKCSKEKPKCAKCLKNNWECRYSPKTKRSPLTRAHLTEVESRLERLEQLFLLIFPREDLDMILKMDSLQDIKALLTGLFVQDNVNKDAVTDRLASVETDMPLTLRQHRISATSSSEESSNKGQRQLTVSMAAGVAAWLPFARAAAIGWMPVANCPMPLAPADKNKRQDELIVLNVSGRRFQTWRTTLERYPDTLLGSTEKEFFFNEDTKEYFFDRDPEVFRCVLNFYRTGKLHYPRYECISAYDDELAFYGILPEIIGDCCYEEYKDRKRENAERLMDDNDSENNQESMPSLSFRQTMWRAFENPHTST", "values": [{"measurement": "increase in Renilla luciferase activity, strain ybn77L", "setting": "[2]", "result": 25, "unit": "fold"}, {"measurement": "increase in luciferase activity (Gal1/10-luciferase reporter), both fusions against one fusion plus empty vector", "setting": "[2]", "result": 30, "unit": "fold"}, {"measurement": "increase in luciferase activity (low copy CEN Gal-luciferase reporter Kp132), test strain against negative control strain", "setting": "[2]", "result": 100, "unit": "fold"}]}
{"molecule": "porcine growth hormone (GH) fused to the Gal4 activation domain (GH in pACT-II) (ligand, UniProt P01248 27-216, looked up, not shown: large carriers; small tags and cut ends, mature; Expressed inside yeast (two-hybrid); also called GH-Gal4 fusion protein; GH fusion) FPAMPLSSLFANAVLRAQHLHQLAADTYKEFERAYIPEGQRYSIQNAQAAFCFSETIPAPTGKDEAQQRSDVELLRFSLLLIQSWLGPVQFLSRVFTNSLVFGTSDRVYEKLKDLEEGIQALMRELEDGSPRAGQILKQTYDKFDTNLRSDDALLKNYGLLSCFKKDLHKAETYLRVMKCRRFVESSCAF", "values": [{"measurement": "binding result", "setting": "[3]", "result": "binds"}]}
{"molecule": "GH: mature porcine growth hormone expressed as free ligand from pCUP plasmid (protein, UniProt P01248 27-216, looked up) Somatotropin: FPAMPLSSLFANAVLRAQHLHQLAADTYKEFERAYIPEGQRYSIQNAQAAFCFSETIPAPTGKDEAQQRSDVELLRFSLLLIQSWLGPVQFLSRVFTNSLVFGTSDRVYEKLKDLEEGIQALMRELEDGSPRAGQILKQTYDKFDTNLRSDDALLKNYGLLSCFKKDLHKAETYLRVMKCRRFVESSCAF", "values": [{"measurement": "Effect of co-expressed free peptide on GH-GHR-dependent cell growth on selective medium", "setting": "[4]", "result": "block GH-GHR-dependent cell growth on selective medium"}]}
{"molecule": "free porcine growth hormone expressed from pCUP (GH-pCUP) (ligand, UniProt P01248 27-216, looked up, mature; Non-fusion GH; also called free GH; free ligand) FPAMPLSSLFANAVLRAQHLHQLAADTYKEFERAYIPEGQRYSIQNAQAAFCFSETIPAPTGKDEAQQRSDVELLRFSLLLIQSWLGPVQFLSRVFTNSLVFGTSDRVYEKLKDLEEGIQALMRELEDGSPRAGQILKQTYDKFDTNLRSDDALLKNYGLLSCFKKDLHKAETYLRVMKCRRFVESSCAF", "values": [{"measurement": "binding result", "setting": "[5]", "result": "binds"}]}
{"molecule": "PRL: mature porcine prolactin expressed as free peptide from pCUP plasmid (protein, left off: large carriers; small tags and cut ends, mature porcine prolactin expressed as free peptide from pCUP plasmid) LPICPSGAVNCQVSLRDLFDRAVILSHYIHNLSSEMFNEFDKRYAQGRGFITKAINSCHTSSLSTPEDKEQAQQIHHEVLLNLILRVLRSWNDPLYHLVTEVRGMQEAPDAILSRAIEIEEQNKRLLEGMEKIVGQVHPGIKENEVYSVWSGLPSLQMADEDTRLFAFYNLLHCLRRDSHKIDNYLKLLKCRIIYDSNC", "values": [{"measurement": "Effect of co-expressed free peptide on PRL-PRLR-dependent cell growth on selective medium", "setting": "[6]", "result": "growth is abrogated"}, {"measurement": "Effect of co-expressed free peptide on GH-GHR-dependent cell growth on selective medium", "setting": "[4]", "result": "grows on selective medium"}, {"measurement": "Growth", "setting": "[4]; strain with GH and GHR fusions plus free peptide expressed from pCUP, selective medium, 3 to 5 days at 30 C", "result": "+"}]}
